Assay results taken from patent US5866683A, “Isoelectric point markers for isoelectric focusing with fluorescence detection” (Laboratory of Molecular Biophotonics, priority 1995, dated 1999).
Where no end group is shown, it is not given here.

Assays:
[1] = isoelectric focusing in polyacrylamide slab gel, mobility compared with commercial pI markers; format: physicochemical; conditions: fluorescence-labeled (5-carboxytetramethylrhodamine) oligopeptide, carrier ampholyte pH 3.5-10, vs pI calibration kit 3-10 (range pI 9.30-3.5)
Excerpt: In the present invention, pI of each marker for isoelectric focusing with fluorescence detection can be determined by performing isoelectric focusing to compare a mobility thereof with those of commercially available markers for isoelectric focusing or to directly measure pH at a position of migration of the labeled peptide. The isoelectric focusing preferably applicable is isoelectric focusing in polyacrylamide slab gel (see […]., Isoelectric Focusing: Theory, Methodology and Applications, Elsevier, Amsterdam, 1983). […] The focusing conditions were as follows: started at […] and focusing the voltage was increased at intervals of 15 minutes to 100 V, 200 V, 400 V, and 600 V. After focusing, fluorescence-labeled oligopeptides in the gel were photographed through an orange filter under illumination with ultraviolet light, thereby checking focusing positions thereof. […] After staining, de-stained with a mixed solvent of methanol and acetic acid to obtain a clear background, thereby checking the focusing positions. FIG. 5,6,and 7 show the focusing positions of the 24 fluorescence-labeled oligopeptides obtained and the isoelectric focusing markers commercially available.

[2] = unlabeled protein; cited from earlier work

| Substance | pI Observed [1] | pI (known) of conventional protein pI marker [2] |
| --- | --- | --- |
| Glu--His--Lys--Arg (EHKR; printed: Glu--His--Lys--Arg) [No 9, oligopeptide labeled with 5-carboxytetramethylrhodamine] | 7.65 | – |
| DDEHHHKR [No 20, oligopeptide labeled with 5-carboxytetramethylrhodamine] | 4.70 | – |
| DEYHKR [No 12, oligopeptide labeled with 5-carboxytetramethylrhodamine] | 5.55 | – |
| human carbonic anhydrase [reference compound] | – | 6.50 |
| Tyr--Tyr--His--Lys--Arg (YYHKR; printed: Tyr--Tyr--His--Lys--Arg) [No 8, oligopeptide labeled with 5-carboxytetramethylrhodamine] | > 9.30 | – |
| phycocyanin [reference compound] | – | 4.65 |
| human hemoglobin A [reference compound] | – | 7.10 |
| bovine carbonic anhydrase [reference compound] | – | 6.00 |
| EHHHKR [No 17, oligopeptide labeled with 5-carboxytetramethylrhodamine] | 7.90 | – |
| β-lactoglobulin B [reference compound] | – | 5.10 |
